Key:
Experiment in all cases: kinase inhibition
[1] = molecular target: His-JNK1 (ref 14-327, Upstate) (UniProt P45983)
[2] = molecular target: His-JNK2 (ref 14-329, Upstate) (UniProt P45984)
[3] = molecular target: His-JNK3 (ref 14-501, Upstate) (UniProt P53779)
Chain of His-JNK3 (ref 14-501, Upstate) (P53779 other isoform, or with tags, fused parts or gaps): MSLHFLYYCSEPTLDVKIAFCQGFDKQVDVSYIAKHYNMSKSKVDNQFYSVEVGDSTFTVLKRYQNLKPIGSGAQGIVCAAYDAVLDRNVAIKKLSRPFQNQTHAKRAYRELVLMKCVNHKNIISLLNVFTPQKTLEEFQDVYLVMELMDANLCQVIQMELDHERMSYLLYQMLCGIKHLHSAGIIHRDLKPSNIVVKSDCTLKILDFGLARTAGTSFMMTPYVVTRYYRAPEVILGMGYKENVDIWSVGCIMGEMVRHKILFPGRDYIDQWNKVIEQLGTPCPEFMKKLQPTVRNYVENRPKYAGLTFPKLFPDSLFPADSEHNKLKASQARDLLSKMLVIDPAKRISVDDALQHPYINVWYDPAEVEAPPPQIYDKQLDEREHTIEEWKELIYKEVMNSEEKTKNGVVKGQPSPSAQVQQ

Chain of His-JNK1 (ref 14-327, Upstate) (P45983 other isoform, or with tags, fused parts or gaps): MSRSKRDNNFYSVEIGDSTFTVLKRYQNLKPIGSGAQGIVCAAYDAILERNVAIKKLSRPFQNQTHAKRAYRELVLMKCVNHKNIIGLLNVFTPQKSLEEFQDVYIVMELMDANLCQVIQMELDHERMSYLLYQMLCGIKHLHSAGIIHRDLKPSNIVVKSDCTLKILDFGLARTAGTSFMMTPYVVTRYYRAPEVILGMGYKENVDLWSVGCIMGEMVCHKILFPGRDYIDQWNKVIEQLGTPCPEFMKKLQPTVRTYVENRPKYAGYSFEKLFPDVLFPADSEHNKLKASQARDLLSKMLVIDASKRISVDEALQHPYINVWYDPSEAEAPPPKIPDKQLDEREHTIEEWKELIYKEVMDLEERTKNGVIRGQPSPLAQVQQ

## D-TAT-IB1
[1]
  IC50: 24400 nM
[2]
  IC50: 802 nM
[3]
  IC50: 1290 nM
